Measured values from patent US20210380687A1 (ALBERT EINSTEIN COLLEGE OF MEDICINE, published 2021).

B1: monoclonal antibody 38B5 (antibody, V domains shown)
VH: QIQLVQSGPELKKPGETVKISCKASGYIFRNYGMNWVKQAPGKGLKWMGWINTYTGEPTYADDFKGRFAFSLETSASTAYLQINNLKNEDMATYFCARRGWLLTGGAMDYWGQGTSVTVSQ
VL: DIQMTQSPSSLSASLGERVSLTCRASQDIGSSLNWLQQEPDGTIKRLIYATSSLDSGVPKRFSGSRSGSDYSLTISSLESEDFVDYYCLQYVSSPWTFGGGTKLEIKR
notes: also called mAb 38B5
B2: monoclonal antibody 25C8 (antibody, V domains shown)
VH: QVQLQQSGAELVRPGTSVKVSCKASGYAFTIYLIEWVKQRPGQGLEWIGVINPGSGGTNYNEKFKGKATLTADKSSSTAFMQLSSLTSDDSAVYFCARSYYYGSFAMDYWGQGTSVTVSQ
VL: DVQMTQTISSLSASLGDRVTISCRASQDIGNYLNWYQQKPDGTVKLLIYYTSRLHSGVPSRFSGSGSGTDYSLTISNLEQEDIATYFCQQGNTLRTFGGGTKLEIKR
notes: also called mAb 25C8
B3: monoclonal antibody 36B11 (antibody, V domains shown)
VH: QIQLVQSGPDLKKPGETVKISCKASGYIFRNYGMNWVKQAPGKGLKWMGWINTYTGEPTYADDFKGRFAFSLETSASTAYLQINNLKNEDMATYFCARDCGTSHYYAMDYWGQGT
VL: DIQMTQTTSSLSASLGDRVTISCRASQDISNYLNWYQQKPDGTVKLLIYYTSRLHSGVPSRFSGSGSGTDYSLSISNLEQEDIATYFCQQGNTFPLTFGAGTKLDLKR
notes: the VH entry is cut short at its C-terminus; also called mAb 36B11

Biological target: T1, human CEACAM1 (as used in Surface Plasmon Resonance) (human)
T1 chain: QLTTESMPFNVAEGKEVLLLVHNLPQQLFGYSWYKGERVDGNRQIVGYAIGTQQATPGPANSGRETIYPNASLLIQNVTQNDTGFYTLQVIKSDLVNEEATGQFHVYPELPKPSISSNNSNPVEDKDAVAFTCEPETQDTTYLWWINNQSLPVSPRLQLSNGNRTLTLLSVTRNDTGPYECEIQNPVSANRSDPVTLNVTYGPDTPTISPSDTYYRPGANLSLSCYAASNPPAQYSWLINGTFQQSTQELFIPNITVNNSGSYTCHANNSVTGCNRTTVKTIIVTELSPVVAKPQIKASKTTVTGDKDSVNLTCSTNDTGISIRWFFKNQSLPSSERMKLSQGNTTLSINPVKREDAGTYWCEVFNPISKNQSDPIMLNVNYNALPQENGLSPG
Experiment: Surface Plasmon Resonance

Binder | Kd [nM] | koff [s⁻¹] | kon [M⁻¹ s⁻¹]
B1 | 0.589 | 0.000482 | 818000
B2 | 3.88 | 0.000193 | 49600
B3 | 1.42 | 0.000108 | 76100
